Experimental data from the DeepSol protein solubility set.

Assay: soluble on expression in E. coli; label from the status in PepcDB or PDB records
For “MGSDKIHHHHHHMIGNRNSTSLEIAMTEIDDITGFIPQPGPIALVLGATGGVGGAVARALAGRGYHVRALHRDAARMAAKQKERQPALEPVLEWVQGDAMNRDDVIYAAKDASVILHGVNPPGYRNWGTLVLPMIDNTIAAARASGACILMPGTIYNYGPDAFPLLNEESPQHPRTVKGEIRVELERRLEQAAGEGVRVILVRAGDFFGPEAGNNWFAQGLITPGKPVTQVNLPGKPGVSHSWAYLPDVAETFIRLLERVPDMPAFARFHMQGHVDTDGYAMAQAIQRVSGSDSVRFKRFAWWMVPLLSPILPVFRELLEMRYLWREPIALDNRRLVEVLGEEPRTRLDVAVATTLKSLKCLQTSAVHPDGSRSMASETAPQ”, the “soluble on expression in E. coli” value was “not soluble”.
For “MGSDKIHHHHHHMAQHEMSPRANSETDTVVLDAPGKSVYESLCEKINLTPVKATRPMESFQSADALSESSLDERVAQAMTVFLKMIQDSSQQVDRLDKSLLDFHIAHLDQQISQQLDAIMHHETFQQIESAWRGLKFLVDRTDFRKNVKIEVLDVSKDALRQDFEDTPELIQSGLYLHTYIQEYDTPGGEPVGSIISNYEFDRSQQDIVLLRNISKVSAAAHMPFIGSVSPKFFGKDSMDEVASIRDIGNYFDRAEYLKWKSFRDSDDARYIGLTLPRFLARLPYGPDTVPVRAFNYTEAVKGPDHSRYLWGNASFAFAVNMVQSFIKNGWCVQIRGPQAGGLVEDLPIHLYDLGTGNQAKIPTEVLIPETREFEFANLGFIPLSYYKNHDFACFFSAHSAQKPALYDTKEATANSRVNARLPYIFLLSRIAHYLKLIQRENIGTTKDRRVLELELNTWIKTLVTEMTDPGDELQASHPLREAKVIVEDIEDNPGFFRVKLFIVPHFQIEGMDINLSLVSQMPKAKTDRLLSASTAI”, the “soluble on expression in E. coli” value was “not soluble”.
For “MGVMKGIEFSESKLKEILDQLPIEAQSAFAASCAQRIFTCYVEYARVAKSKKVDLDAYSEAISYVWNAVIAGNHDAIILNGLLERCMAVLPSEEDAWESGTPYAEDAAAAIIYSLRSLASGCPQEAIWAAKRVYEAVDNFVVNTYNVNTNATDGEKFILDHPIVSNELSRQLRDLNEIINSKRDSESLKKTIKIIMERSKSESNDLFSEAT”, the “soluble on expression in E. coli” value was “not soluble”.
In the case of “MSLKTTPLPILDLLEAYRPLFVEALGNRSRKERSKKERYIAKITAPCIDACPAHVDIPAYIEGVRDHLLGDSLAATRKSMPLAQVCGRVCPHPCESACRRGDLDEPISIMELKRLGADYEKERHGGFIHPYPPKPRRKDKRVAIIGAGPAGLSSAYYLALEGIMSDVFEALPVLGGEVSVGVPEYRMPIDRYYHDIEAIKSLGVSFWTNHFVSAKELDEMRQKYDAIILATGARISKKLGVKGEEESLGGYAPAIPWLDQINLATKFNLAALPDLRGKSVVCVGGGFTSMDVVRCAVRLGAKRIVMLYRRDEATLIQNTSKEEYHEALEEGVEFLFQCAVQEIKSCGGEIKALLVEEYEVVYEEGARKPSLRRIEREPLFLECDLLIPAVSQEVDRSFIPKEWNLESTSWGSFKTNGKDFSTTLRGVFAAGDCEKGPLTIVNAVGQGKRAASVVSRFLEDGEEGHHHHHH”, the “soluble on expression in E. coli” value is reported as “soluble”.
With “MGAIKVEIKSGALLISPSEFKERYLPTLQDMPVLAFVRNIEAPKSWYSYLISNIEDQKSSIFPTNLPRILEISRRYFSSVKNGIVVIDALEYLTIYNGFEAIAKFLATLRDFAILDNGTVIIITEKKAWKDREWALLTSLLGKLEHHHHHH” the “soluble on expression in E. coli” value was “not soluble”.
For “MKDVTPARADYPWDGERDVIVIGSGCAGLSAALLAAKKSLDVVLCEKSSQVGGTTASAGGVMWIPNSREARAAGVDDSSEQVRVYLRALMGAYYRADLVDPYLKSAPLAAQAIQEDTQVRLKLMPAMSDYHASLPGGKAGGRSLEPERFDGRRLGADFELVRAPIKRLMLLGGLYIDKRRIDEFLNPFGSFRNFIGVIRTLARYAIDRTRFSRGTDIGAGNAFVASALLSLRERGVPIWLNSPMVSLVRNPQGGVAGVAICRDGKLQRIRARKGVILAAGGFPRNAALLEELAGGFPHDQSVGYEGNVGDTLQAARQAGAAIDADLASPCWWTPTSRNKEADGSMSTVLYGYLDRSRPGMIAVNAAGKRFVNDSDSYHDIVYAMFKDGVTPDSRFYLICDRRFVWKRGLGNLIKPYCLSLGRYVRSGYISTGRSIRELAAAIGIDPDALEVTVTRHNGFCETGVDLDFGKGGNPYNRMFGDPRVKPNPNLLAIRHAPFFALRIYPGTLGTILGLKATADAQVVGQDGEAIPGLYACGNDMSSVFRGFYPGAGATLGPGLVFAYRAIEHLARSSGGSAAQSALEHHHHHH”, the “soluble on expression in E. coli” value was “not soluble”.
In the case of “MNQEQNDIAIRVSNLSKCYHIYDTPRDRLKQFILPRLHHLTGQTPRQYFREFWALRDVSFEVKKGETIGIIGRNGSGKSTLLQMICGTLNPTSGSITTYGRIAALLELGSGFNPEFTGRENVYMNASVLGLSQEETDARFDDIAAFADIGEFIEQPVKTYSSGMMVRLGFAVQAQVKPDILIVDEALAVGDAKFQAKCFDRLQQLKDGGTSILLVTHSSEQIVTHCSEAILLDGGDVIEHGEPRYVVNHYMDLLFGKERKSYSASAFSTESNSVEPTQDDNLSLNFIDDVFSSHANYNEHEYRWGDGTATILDFYLLTDNEPYPSVITSGQSVVLGVAVRFYEDLVRPILGITIKTKEGVTVYGVNSETLETDEIKVLGSKGTTALIKAEFICRLAPGDYFISLGLATRKGEEIVPHDRRYDAIYLQIAPVTKFFGLVDLGLKLSAQNTSLLEHHHHHH”, the “soluble on expression in E. coli” value is reported as “soluble”.
For “MSLENIRNIAVIAHVDHGKTTMVDELLKQSGTFSEREQISERVMDSNDIEKERGITILSKNTAINYKGTKINIIDTPGHADFGGEVERVLKMIDGVLLLVDAQEGVMPQTKFVVKKALSLGLKPIVVINKIDKPAADPERVINEIFDLFVALDANDEQLDFAIVYAAAKNGYAKLDLNDESDNMEPLFKTILERVPAPSGSDENPLQLQVFTLGYDNFVGKIGIARIFNGVVKKNQSVMLAKADGTKVNGRISKLIGFMGLEKMDIEEAGSGDIVAIAGFEALDVGDSVVDPNNPMPLDPLHIEEPTLSIVFSVNDGPLAGTEGKHVTSNKIAERLEAEMKTNIAMKYESTGEGKFKVSGRGELQITILAENMRREGFEFCMGRPEVIVKVEDGVKTEPFEHLVIDVPEEFSGAVIEKLGKRKAEMKTMAPTGDGQTRLEFEIPARGLIGFRSQFLTDTKGEGVMNHSFLEFRPFSGAVEKRNNGALISMENGVALGYSLFNLQERGVLFIEPQTKVYTGMIIGEHSRPNDLDVNPIKGKNLTNVRASGSDDAIKLVPPRKLSLERALEWIEEDELVEVTPVNVRVRKRYLDPTQRKRMEKAKEGHHHHHH”, the “soluble on expression in E. coli” value was “soluble”.
With “MTTPPPRMLPSGDTAITVEFGRDISDESNRRVLALDRKLKQAPIAGILETVPTYRSLLVHYDPETIGFGALSDQLTALAHTSDESETVAKRRWRIPVCYGGEHGIDLEDAAQALNITPDALVARHAAGDYRVAMIGFTPGWSYLSGLDPALAMPRRQAPRLHTPAGTISVGGIQTGIQCLAGPSGWHLLGRTPVRTYQLHREPIFLLEPGDAISFAQIDAKEFAERDDAASHGEVVAELLSALEHHHHHH” the “soluble on expression in E. coli” value was “soluble”.
With “MSLATAPPFERIETTGLQTLTPRELDELIESVAAVDNPTPLVDDESFLRRVTLDAIGRVPTEQEWKTFMEDPASNKRAKLIDRLLASEEYGANWANYWSDVFSYRTPSPELTFLSYDTPKHWLAEQLNNGVGWDQVSYQMLTGVGKVADNPAAFYVGYHQADVSRLAGESTRIFLGAQIQCAECHDHPFVDIPQERFHQMAAFFVRTKAELPWNDEGHHHHHH” the “soluble on expression in E. coli” value was “soluble”.
In the case of “MWRLTRKIGTRIHISNQLSPIFNKAIGTVPVFRFYSSSPEQKYRKKLLEEAQKQGFNSIEELKNHLKETIESKKREFNKIDPLKELEDYQQKTQMENNNSKHLMTKSRSPLDPSAPKVPFKTLDSFLDVGKLKDLSKQEVEFLWRARWAQKDNTLCAVIPVSVYDKMMANARNNPIFVLPLPRQVQSEDAKPNEEQGMELHYIQWQFVGPQTTHCMMTSLAEYKLHQEFARPHTTLQFHSDLVKDKGIVFMNGHVEPDTNVNVQDAQLLLLNVQRFYGAMGEETPVAKQRVQLLRDFSKASPGFTVEKLISLSQSMEN”, the “soluble on expression in E. coli” value is reported as “soluble”.
For “MSVNFSPCVLIPCYNHGAMMPGVLARLKPFNLPCIVVDDGSDATTQQQLDSLLAEQPGVTLIRLAENAGKGAAVMRGLQAAADAGFSHAVQVDADGQHAIEDIPKLLALAEQQPAALISGQPIYDDSIPRSRLYGRWVTHVWVWIETLSLQLKDSMCGFRVYPVAPTLQLAKHATIGKRMDFDTEVMVRLYWQGNTSYFVPTRVTYPLDGLSHFDALKDNVRISLMHTRLFFGMLPRIPSLLMRRSSCHWARQSEVKGLWGMRLMLLVWRLLGRTAFSALLYPVVGVYWLTASRARKASQDWLARVRQHQPQAAKLNSYQHFLRFGNAMLDKIASWRGELQPGRDVLFAPGAEAALDVRDPRGKLLLASHLGDVEVCRALAKIQGYKTINALVFSENAQRFKQIMQEMAPQAGINLMPVTDIGPETAILLKEKLDNGEWVAIVGDRIAVNPQRGGDWRVCWSSFMGQPAPFPQGPFILASILRCPVNLIFALRQHGKLHIHCESFADPLQLPRGERQQALQNAIDHYAARLEHYALQSPLDWFNFFDFWQLPEIQDKE”, the “soluble on expression in E. coli” value was “not soluble”.
For “MIAITGASGQLGRLVIAQLLEKVPASDIVALVRDVNKVADLSAKGVQVKAADYNQPEALAFALQGVDKVLLISSSEVGQRAAQHRNVIEAAVKAGVKLVAYTSLLHADKSPLALAEEHRQTEALLKDSGLPHVLLRNGWYTENYAASIPAALEHGVFIGSAGEGKITSATREDFAAAAVAVLTQEGQAGKVYELAGDEPYTLVELAAEISKQSGKSIGYQNLSGAEFTAALVSAGLPDVFAQIIADSDVGASKGGLFDGGKHLSQLIGRPTTPLSAVVKATLK”, the “soluble on expression in E. coli” value was “soluble”.
In the case of “MSNEEIKNKDEQLQQDAVETEAEVVGTDADIDWNQAADEIDEKEAKIAQLEAALLVSEERVKEQQDSVLRARAEVENMRRRSEQEVDKARKFALSRFAEELLPVIDNLERAIQAADGEVEAIKPLLEGVELTHKTFVDTIAKFGLKEINPHGEVFNPEFHQAMSIQESAEHEPNTVMFVMQKGYELNGRVLRPAMVMVSK”, the “soluble on expression in E. coli” value is reported as “not soluble”.
For “EIEMTQSPSSLSASVGDRVTISCRASQRINTYLNWYQHKPGKAPKLLIYAASSLQSGVPSRFSGSGYGTDFTLTISSLQPEDFASYYCQESLSASYTFGQGTKVEIKRTVAAPSVFIFPPSDEQLKSGTASVVCLLNNFYPREAKVQWKVDNALQSGNSQESVTEQDSKDSTYSLSSTLTLSKADYEKHKVYACEVTHQGLSSPVTKSFNRGEC”, the “soluble on expression in E. coli” value was “soluble”.
In the case of “MTSSIKSDAPQFLLDLDNCSSLPPTPPKTASPGNSKMKGFNISDLCLDLDSSTSSSCSVSPASSFHTRSESVGQQQSGRNSPVSSSTESPTKRPKYSYNALIAMAIQSSPFKSLRVSEIYKYISSNFSYYKNQKPLQWQNSVRHNLSLHKEFRKVRTLDGKGSYWAMTADLGTDVYISNNCGKLRRQKSKVAKFPPMQQHFPIPQLPTQNIHQLCMQNPQILATLLQNMYLQNMQNLQNIPMVPGFPIIPVPINPTSFHFPKSS”, the “soluble on expression in E. coli” value is reported as “not soluble”.
With “MERPQLDSMSQDLSEALKEATKEVHIRAENSEFMRNFQKGQVSREGFKLVTASLYHIYTALEEEIERNKQNPVYAPLYFPEELHRRAALEQDLAFWYGPHWQEAIPYTPATQHYVKRLHEVGGTHPELLVAHAYTRYLGDLSGGQVLKKIAQKALALPSSGEGLASFTFPSIDNPTKFKQLYRARMNTLELTPEVKHRVTEEAKTAFLLNIELFEELQALLTEEHKDQSPSQTEFLRQRPASLVQDTTSAETPRGKSQISTSSSQTP” the “soluble on expression in E. coli” value was “soluble”.
With “MGSDKIHHHHHHMCMTSPDQLTASESADTASAHKRVLVAAPRGYCAGVDRAVETVEKALEKYGAPVYVRKEIVHNRYVVDTLAERGAIFVDETTEAPEGAHLVFSAHGVSPAVHKEAEALSLKTLDATCPLVTKVHNEVKRFARDGYHILLVGHEGHEEVEGTAGEAPDVTHLVDGVESVDKLPEFLHDEKLIWLSQTTLSVDETMTIVKKLHERFAHLQDPPSDDICYATQNRQVAVKAIAAESDVVIVVGSQNSSNSKRLVEVALQAGAGASYLVDYAHQIDESWLDGATTVGVSSGASVPEILVRGVLEFLDARGFHDVKEITTAAEKITFALPRDLRPART” the “soluble on expression in E. coli” value was “not soluble”.
